Data: article doi:10.1101/2023.11.17.567546

What was measured:
Hfq [1] = target: Hfq (UniProt P0A6X3); experiment: lead acetate footprinting
Hfq [2] = target: Hfq (UniProt P0A6X3); experiment: EMSA

Sequence of Hfq (P0A6X3 whole entry): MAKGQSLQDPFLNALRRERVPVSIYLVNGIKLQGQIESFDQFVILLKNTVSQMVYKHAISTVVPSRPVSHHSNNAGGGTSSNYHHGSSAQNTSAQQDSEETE

GCGCCAACGUCGCAUCUGGUUCUCAUCAUCGCGUAAUAUUGAUGAAACCUGCGGCAUCCUUCUUCUAUUGUGGAUGCUUUACAAUGAUUAAAAAAGCUUCGCUGCUGACGGCGUGUUCCGUCACGGCAUUUUCCGCUUGGGCACAGGAUACCAGCCCGGAUACUCUCGUCGUUACUGCUAACCGUUUUGAACAGCCGCGCAGCACUGUGCUUGCACCAACCACCGUUGUGACCCGUCAGGAUAU [btuB mRNA -80 to +161]
binding (Hfq [1]): binds
binding (Hfq [2]): binds
